The results in this text go back to FireProtDB (doi:10.1073/pnas.0911904107).

The conditions of this data set: Escherichia coli (strain K12), pH 8, 25 °C, Urea, CD, whole UniProt chain shown.
[1] abbreviates: Sodium phosphate 50 mM, reversible: Yes.
Where [2] appears, read: sodium phosphate buffer, transition: 2, reversible: yes.

B1: Lipid A palmitoyltransferase PagP wild type, P37001 (protein)
chain: MNVSKYVAIFSFVFIQLISVGKVFANADEWMTTFRENIAQTWQQPEHYDLYIPAITWHARFAYDKEKTDRYNERPWGGGFGLSRWDEKGNWHGLYAMAFKDSWNKWEPIAGYGWESTWRPLADENFHLGLGFTAGVTARDNWNYIPLPVLLPLASVGYGPVTFQMTYIPGTYNNGNVYFAWMRFQF
As to B1, under setting [1], the denaturant m value came to 1.64 kcal/mol/M, the “denaturant midpoint (higher = more stable)” value was determined as 8.77 M and the unfolding free energy is 60.2 kJ/mol. Besides, under setting [2], the “denaturant midpoint (higher = more stable)” value amounted to 8.77 M and the unfolding free energy was 60.2 kJ/mol.
